Measurements as given in US20240343803A1 (SHANDONG SIMCERE BIOPHARMACEUTICAL, published 2024).
Where a chain is given by its changes, count along the chain named.

T1: human PVRIG-his (AcroBiosystems, Cat NO. PVG-H52H4) (human, UniProt Q6DKI7 41-171, limits assumed)
T1 construct: also called human PVRIG protein
T1 sequence (looked up): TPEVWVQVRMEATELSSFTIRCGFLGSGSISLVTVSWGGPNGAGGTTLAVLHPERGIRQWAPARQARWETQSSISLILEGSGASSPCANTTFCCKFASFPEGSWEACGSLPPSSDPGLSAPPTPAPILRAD

T2: cynomolgus monkey PVRIG on FlpinCHO-cyno PVRIG cells (cynomolgus monkey, UniProt A0A2K5WVV8 41-322)
T2 construct: whole, on cells
T2 sequence: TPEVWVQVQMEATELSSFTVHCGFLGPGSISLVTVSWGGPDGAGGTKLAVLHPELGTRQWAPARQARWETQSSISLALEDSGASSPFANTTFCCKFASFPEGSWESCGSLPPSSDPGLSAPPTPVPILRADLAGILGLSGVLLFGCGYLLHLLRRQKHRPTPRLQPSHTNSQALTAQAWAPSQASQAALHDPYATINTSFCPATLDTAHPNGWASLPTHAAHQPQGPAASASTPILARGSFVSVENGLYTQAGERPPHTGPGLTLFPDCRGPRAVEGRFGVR

T3: cynomolgus monkey PVRIG (Novoprotein, Cat NO. C09B) (cynomolgus monkey, UniProt A0A2K5WVV8 41-171)
T3 construct: also called cynomolgus monkey PVRIG protein
T3 sequence: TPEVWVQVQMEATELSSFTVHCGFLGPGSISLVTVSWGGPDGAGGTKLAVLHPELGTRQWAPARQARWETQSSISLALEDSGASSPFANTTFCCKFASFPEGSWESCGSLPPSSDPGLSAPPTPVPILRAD

B1: PVRIG-A105 (Fc fusion)
chain: EVQLVESGGGLVQAGGSLRLSCAASGRTFDRHTMTWFRQAPGKEREFVATASRIPGDTYYSHSVKGRFTISRDNAKNTVYLQLNNLKPEDTAVYYCAATSAYCSEVDCYEKGSWYDNWGQGIQVTVSS
notes: heavy chain antibody VHH-hinge-CH2-CH3, human IgG1 constant part; not shown: human IgG1 hinge-CH2-CH3
B2: PVRIG-A105-H4 (Fc fusion)
chain: B1 chain with A14P, T78S, V79L, L83M, N85S, K87R, P88A, I122T, Q123M
notes: humanized variant of PVRIG-A105; also called A105.VH4; not shown: constant part not restated for the humanized forms; parents are VHH-hinge-CH2-CH3 of human IgG1; detected by anti-human
B3: PVRIG-A105-H1 (Fc fusion)
chain: EVQLVESGGGLVQPGGSLRLSCAASGRTFDRHTMSWFRQAPGKEREFVATASRIPGDTYYVDSVKGRFTISRDNAKNSLYLQMNSLRAEDTAVYYCAATSAYCSEVDCYEKGSWYDNWGQGTMVTVSS
notes: humanized variant of PVRIG-A105; also called A105.VH1; not shown: constant part not restated for the humanized forms; parents are VHH-hinge-CH2-CH3 of human IgG1; detected by anti-human
B4: PVRIG-A105-H3 (Fc fusion)
chain: B3 chain with S35T, L79V
notes: humanized variant of PVRIG-A105; also called A105.VH3; not shown: constant part not restated for the humanized forms; parents are VHH-hinge-CH2-CH3 of human IgG1; detected by anti-human
B5: PVRIG-A50 (Fc fusion)
chain: EVQLVESGGGLVQPGGSLRLSCAASGFTFSYYDMSWVRQAPGKGLEWVSTINSNGGRTSYVDSVKGRFTISRDNTKNTLYLQMNSLKPEDTAVYYCVEGDPHNFGLENLSLRDFGSWGQGTQVTVSS
notes: heavy chain antibody VHH-hinge-CH2-CH3, human IgG1 constant part; also called PVRIG-50; not shown: human IgG1 hinge-CH2-CH3
B6: PVRIG-A50-H2a (Fc fusion)
chain: B5 chain with G55A, K87R, P88A, N108S, Q122M
notes: humanized variant of PVRIG-A50; also called A50.VH2a; not shown: constant part not restated for the humanized forms; parents are VHH-hinge-CH2-CH3 of human IgG1; detected by anti-human
B7: PVRIG-A50-H1b (Fc fusion)
chain: B5 chain with N54D, T75S, K87R, P88A, N108S, Q122M
notes: humanized variant of PVRIG-A50; also called A50.VH1b; not shown: constant part not restated for the humanized forms; parents are VHH-hinge-CH2-CH3 of human IgG1; detected by anti-human
B8: PVRIG-A50-H1e (Fc fusion)
chain: B5 chain with G55A, T75S, K87R, P88A, N108S, Q122M
notes: humanized variant of PVRIG-A50; also called VH1e; not shown: constant part not restated for the humanized forms; parents are VHH-hinge-CH2-CH3 of human IgG1; detected by anti-human
B9: PVRIG-A50-H1c (Fc fusion)
chain: B5 chain with N54D, T75S, K87R, P88A, S110A, Q122M
notes: humanized variant of PVRIG-A50; also called A50.VH1c; not shown: constant part not restated for the humanized forms; parents are VHH-hinge-CH2-CH3 of human IgG1; detected by anti-human
B10: PVRIG-A50-H1a (Fc fusion)
chain: B5 chain with N54D, T75S, K87R, P88A, Q122M
notes: humanized variant of PVRIG-A50; also called A50.VH1a; not shown: constant part not restated for the humanized forms; parents are VHH-hinge-CH2-CH3 of human IgG1; detected by anti-human
B11: PVRIG-A118 (Fc fusion)
chain: QVQLVESGGGLVQAGGSLRLSCAASETYFDLYVMGWYRQAPGKDRELVATITYTGSIKIVDSVKDRFTISRGDAKNTVSLQMSSLKPEDTAVYFCNADPSGLGRKVYWGQGTQVTVSS
notes: as for B1

Target: T1, human PVRIG-his (AcroBiosystems, Cat …)
Test: SPR (BIAcore), antibody captured on Protein A chip, human PVRIG-His analyte
Method: Biacore was used to detect the specific binding between anti-PVRIG antibody and human PVRIG protein. Protein A chip was used in the BIAcore assay. The time required for the chip to capture the diluted antibody and saturate the binding antigen to reach Rₘₐₓ (Maximum binding capacity, 50 RU) was measured by manual run. […] The affinity of antibody for antigen was measured by multi-cycle kinetics. In each cycle, the antibodies were injected prior to the injection of gradient concentraions of PVRIG proteins allowing the occurrence of antibody-antigen association and dissociation After each cycle, the Protein A chip was regenerated by Glycine, pH 1.5 (to remove the proteins on the chip). The affinity of antibody for antigen was calculated by BIAcore T200 analysis software.
The methods refer to Example 10.

Binder | Kd [nM] | koff [s⁻¹] | kon [M⁻¹ s⁻¹]
B1 | 0.675 | 0.000486 | 721000
B2 | 0.796 | 0.000773 | 972000
B3 | 0.932 | 0.0013 | 1.39e+06
B4 | 0.622 | 0.000576 | 925000
B5 | 0.043 | 1.9e-05 | 443000
B6 | 0.0585 | 1.61e-05 | 276000
B7 | 0.0804 | 2.82e-05 | 350000
B8 | 0.0551 | 1.46e-05 | 265000
B9 | 0.0462 | 2.03e-05 | 438000
B10 | 0.0451 | 1.92e-05 | 425000
B11 | 0.483 | 0.00102 | 2.12e+06

Target: T2, cynomolgus monkey PVRIG on …
Test: FACS, FlpinCHO-cyno PVRIG cells
Method: The antibodies were diluted from the highest concentration of 46 nM (two-fold concentration) with staining buffer by 3.3-fold serial dilution. The diluted antibodies were added to the well containing 50 μL of cell suspension. The plate was placed on a microplate shaker at 400 rpm for 1 minute to fully mix the antibodies and cells, and then incubated at 4° C. for 30 minutes. After the incubation, the cells were washed twice with staining buffer (200 μL per well) and centrifuged at 350×g for 5 minutes to discard the supernatant. The PE goat anti-human IgG Fc antibody (ebioscience, 12-4998-82) was diluted 250 times with staining buffer, added into the washed wells (100 μL per well), mixed well, and stained at 4° C. for 30 minutes. After staining, the cells were washed twice with staining buffer, finally resuspended with 200 μL staining buffer and analyzed by flow cytometry (BD, Canto II). The stronger the signal, the stronger the ability of the antibodies binds to PVRIG. An antibody binding curve was drawn with concentration of antibodies as the abscissa and the corresponding Mean Fluorescence Intensity (MFI) as the ordinate. The AUC value of the curve was calculated by using a Four Parameter Logistic Fit (GraphPadPrism9). The stronger the AUC value, the stronger the ability of the antibodies binds to FlpinCHO-PVRIG and FlpinCHO-cyno PVRIG. […] The binding activity of the antibodies was normalized to the positive control COM701-hIgG1 and SRF813-hIgG1. The higher the percentage value, the stronger the binding ability of the antibodies.
The methods refer to Example 19. The stronger the AUC value, the stronger the ability of the humanized antibodies binds to FlpinCHO-human/cyno PVRIG.

Binder | AUC % to COM701-hIgG1 [%] | AUC % to SRF813-hIgG1 [%] | AUC % to parental Ab [%]
B1 | 87.5 | 108 | 100
B2 | 80.3 | 99.6 | 91.8
B3 | 81.3 | 101 | 93
B4 | 86.4 | 107 | 98.8
B5 | 47.1 | 57.8 | 100
B6 | 42.4 | 52.1 | 90.2
B7 | 34.4 | 42.2 | 73.1
B8 | 43.3 | 53.2 | 92
B9 | 38.8 | 47.6 | 82.5
B10 | 40.7 | 50 | 86.5
B11 | 62.4 | 76.1 | 100

Target: T3, cynomolgus monkey PVRIG (Novoprotein, …)
Test: ELISA, antigen coated
Method: (§1) The ELISA plate was pre-coated with 100 μL/well of 0.5 μg/mL human PVRIG-his (AcroBiosystems, Cat NO. PVG-H52H4) or cynomolgus monkey PVRIG (Novoprotein, Cat NO. C09B). The tested anti-PVRIG humanized antibodies were serially diluted (initial concentration 3 nM, 3-fold serial dilution), added into the plate (100 μL/well) and incubated with shaking at room temperature for 1.5 hours. […] A HRP substrate, TMB (Thermo, Cat NO. 34029) was added into wells after washing the plate again for color development. After adding a termination solution to terminate the reaction, the absorbance value was read by a microplate reader (MD i3×). An antibody binding curve was drawn with concentration of antibodies as the abscissa and the corresponding OD value as the ordinate. The EC50 value was calculated by using a Four Parameter Logistic Fit (GraphPadPrism9). The smaller the EC50 value, the stronger the ability of the antibodies binds to human or cynomolgus monkey PVRIG. The binding effect of the humanized antibodies was normalized to the corresponding parental antibodies. If the percentage value is higher than 100%, the binding effect of humanized antibodies is better than that of parental antibody.

Binder | % relative activity parental antibody/tested antibody [%] | EC50 [nM]
B2 | 89.4 | 0.0361
B3 | 107 | 0.0303
B4 | 91.7 | 0.0352
B6 | 68.3 | 0.18
B7 | 75.8 | 0.161
B8 | 89.5 | 0.138
B9 | 69.5 | 0.177
B10 | 66.4 | 0.185

Target: T1, human PVRIG-his (AcroBiosystems, Cat …)
Test: ELISA, antigen coated
Method: as §1

Binder | % relative activity parental antibody/tested antibody [%] | EC50 [nM]
B2 | 140 | 0.0521
B3 | 150 | 0.0487
B4 | 125 | 0.0585
B6 | 140 | 0.0655
B7 | 111 | 0.0819
B8 | 116 | 0.0791
B9 | 87.3 | 0.105
B10 | 92.4 | 0.099
